Laboratory results reported in patent US20260242478A1 (published 2026).

Tests used:
[1] = target: Anti-CD28 Fab (SEQ ID NOs: 696, 697); test: phage binding ELISA; biotinylated anti-CD28 Fab on neutravidin plate, clonal phage detected with anti-M13 HRP
Target sequence in this assay (VH, as listed by the source, chain 1 of 2): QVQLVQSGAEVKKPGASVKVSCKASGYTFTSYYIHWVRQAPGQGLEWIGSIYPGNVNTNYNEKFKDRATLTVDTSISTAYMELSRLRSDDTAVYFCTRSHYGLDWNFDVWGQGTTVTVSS
Target sequence in this assay (VL, as listed by the source, chain 2 of 2): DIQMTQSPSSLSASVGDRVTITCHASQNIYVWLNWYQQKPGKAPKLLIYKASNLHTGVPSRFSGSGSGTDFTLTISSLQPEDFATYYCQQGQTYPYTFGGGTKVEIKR
Description: (§1) Clonal phage were harvested as crude supematants and screened via standard ELISAs. […] Prior to the addition of clonal phage, wells were incubated with blocking buffer and CD28 antigen or blocking buffer alone. Without washing or aspirating, clonal phage supematants were then added to the wells and incubated for a short time. Wells were then washed followed by detection of bound phage using a horse radish conjugated anti-M13 antibody.

[2] = target: Anti-CD28 Fab (SEQ ID NOs: 696, 697); test: phage binding ELISA; anti-CD28 Fab on plate pre-incubated with CD28 antigen as competitor
Target sequence in this assay (VH, as listed by the source, chain 1 of 2): as the sequence (VH, as listed by the source, chain 1 of 2) above
Target sequence in this assay (VL, as listed by the source, chain 2 of 2): as the sequence (VL, as listed by the source, chain 2 of 2) above
Description: as §1

[3] = target: T1, Anti-CD28 Fab (SEQ ID NOs: 696, 697); test: phage ELISA; biotinylated anti-CD28 Fab on neutravidin plate, clonal phage supernatant, anti-M13 HRP detection;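 also: before phage addition, wells were pretreated with either CD28 antigen in blocking buffer or only blocking buffer, and phage was added without an intervening wash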
T1 construct: In the phage ELISA the Fab was biotinylated and captured on neutravidin coated plates
T1 sequence (VH, as listed by the source, chain 1 of 2): as the sequence (VH, as listed by the source, chain 1 of 2) above
T1 sequence (VL, as listed by the source, chain 2 of 2): as the sequence (VL, as listed by the source, chain 2 of 2) above
Description: as §1

[4] = target: T1, Anti-CD28 Fab (SEQ ID NOs: 696, 697); test: phage ELISA; Fab-coated wells pre-incubated with CD28 antigen as competitor, clonal phage supernatant, anti-M13 HRP detection
Description: as §1

[5] = target: T2, Anti-CD28 Fab (SEQ ID NOs: 696, 697); test: phage binding ELISA; clonal phage on biotinylated anti-CD28 Fab captured on neutravidin, anti-M13-HRP detection
T2 construct: Biotinylated and captured on neutravidin coated plates in the phage ELISA
T2 sequence (VH, as listed by the source, chain 1 of 2): as the sequence (VH, as listed by the source, chain 1 of 2) above
T2 sequence (VL, as listed by the source, chain 2 of 2): as the sequence (VL, as listed by the source, chain 2 of 2) above
Description: as §1

[6] = target: T2, Anti-CD28 Fab (SEQ ID NOs: 696, 697); test: phage binding ELISA on captured anti-CD28 Fab; competitor CD28 antigen pre-incubated in the wells
Description: as §1

[7] = target: Anti-CD28 Fab (SEQ ID NOs: 696, 697); test: phage binding ELISA; Fab-coated wells pre-incubated with CD28 antigen as competitor, anti-M13 HRP detection;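 also: crude clonal phage supernatants added without washing after the CD28 pre-incubation, with wells given blocking buffer only (no CD28) as the reference, bound phage read after washing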
Target sequence in this assay (VH, as listed by the source, chain 1 of 2): as the sequence (VH, as listed by the source, chain 1 of 2) above
Target sequence in this assay (VL, as listed by the source, chain 2 of 2): as the sequence (VL, as listed by the source, chain 2 of 2) above
Description: Clonal phage were harvested as crude supematants and screened via standard ELISAs. […] Prior to the addition of clonal phage, wells were incubated with blocking buffer and CD28 antigen or blocking buffer alone. Without washing or aspirating, clonal phage supematants were then added to the wells and incubated for a short time. Wells were then washed followed by detection of bound phage using a horse radish conjugated anti-M13 antibody. Clonal phage of interest were then sent for sequence analysis.

[8] = target: Anti-CD28 Fab (SEQ ID NOs: 696, 697); test: phage binding ELISA; biotinylated anti-CD28 Fab on neutravidin plate, clonal phage supernatant, anti-M13 HRP detection;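 also: wells pretreated with blocking buffer, either plus or minus CD28 antigen, then given crude phage supernatant briefly without washing in between, then washed before anti-M13 HRP readout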
Target sequence in this assay (VH, as listed by the source, chain 1 of 2): as the sequence (VH, as listed by the source, chain 1 of 2) above
Target sequence in this assay (VL, as listed by the source, chain 2 of 2): as the sequence (VL, as listed by the source, chain 2 of 2) above
Description: as §1

Binder | Anti-CD28 Fab (SEQ ID NOs: 696, 697) signal [1] | Anti-CD28 Fab signal in the presence of CD28 [2] | Phage binding ELISA, Anti-CD28 Fab signal [3] | Phage binding ELISA, Anti-CD28 Fab signal in the presence of CD28 [4] | Anti-CD28 Fab (SEQ ID NOs: 696, 697) signal [5] | Anti-CD28 Fab signal in the presence of CD28 [6] | also measured
LCTAGLAYNWPTCL [Phage-1471 peptide (Peptide-92 library, SEQ ID NO: 1767)] | 1.77 | 0.05 | – | – | – | – | –
LCAAGANYPWPACL (Tested as clonal phage supernatant; not shown: fused to pIII of the bacteriophage) [Phage-1500 (Peptide-92 library clone, SEQ ID NO: 1796)] | – | – | 1.66 | 0.07 | – | – | –
LCSAGATYPWPWCM (peptide, not shown: large carriers) [Phage-1505] | – | – | – | – | 1.64 | 0.06 | –
TCAAGATYEWPYCF [Phage-1427] | – | – | – | – | – | – | Anti-CD28 Fab signal in the presence of CD28 [7]: 0.06; Anti-CD28 Fab (SEQ ID NOs: 696, 697) signal [8]: 1.96
SCAAGASYPWPQCL [Phage-1470 peptide (Peptide-92 library, SEQ ID NO: 1766)] | 1.77 | 0.11 | – | – | – | – | –
TCSAGAHFAWPMCF (Tested as clonal phage supernatant; not shown: fused to pIII of the bacteriophage) [Phage-1492 (Peptide-92 library clone, SEQ ID NO: 1788)] | – | – | 1.69 | 0.07 | – | – | –
TCAAGAAYTWPACF [Phage-1429] | – | – | – | – | – | – | Anti-CD28 Fab signal in the presence of CD28 [7]: 0.06; Anti-CD28 Fab (SEQ ID NOs: 696, 697) signal [8]: 1.96
WCTAGFSYKLSICL (peptide, not shown: large carriers) [Phage-1507] | – | – | – | – | 1.63 | 0.06 | –
LCNAGAPYKWPTCL (Tested as clonal phage supernatant; not shown: fused to pIII of the bacteriophage) [Phage-1497 (Peptide-92 library clone, SEQ ID NO: 1793)] | – | – | 1.66 | 0.07 | – | – | –
MCSAGATYPWPYCL (peptide, not shown: large carriers) [Phage-1504] | – | – | – | – | 1.64 | 0.1 | –
TCAAGAYYAWPMCL (peptide, not shown: large carriers) [Phage-1517] | – | – | – | – | 1.59 | 0.07 | –
TCAAGATYEWPTCL [Phage-1430] | – | – | – | – | – | – | Anti-CD28 Fab signal in the presence of CD28 [7]: 0.08; Anti-CD28 Fab (SEQ ID NOs: 696, 697) signal [8]: 1.96
LCSAGAMYPWPLCY (Tested as clonal phage supernatant; not shown: fused to pIII of the bacteriophage) [Phage-1498 (Peptide-92 library clone, SEQ ID NO: 1794)] | – | – | 1.66 | 0.08 | – | – | –
TCAAGANYPWPLCL [Phage-1474 peptide (Peptide-92 library, SEQ ID NO: 1770)] | 1.75 | 0.08 | – | – | – | – | –
TCSAGANYEWPWCF (peptide, not shown: large carriers) [Phage-1509] | – | – | – | – | 1.62 | 0.06 | –
TCSAGFSLQLSICL [Phage-1469 peptide (Peptide-92 library, SEQ ID NO: 1765)] | 1.77 | 0.06 | – | – | – | – | –
TCSAGAHWTWPLCF (Tested as clonal phage supernatant; not shown: fused to pIII of the bacteriophage) [Phage-1491 (Peptide-92 library clone, SEQ ID NO: 1787)] | – | – | 1.69 | 0.06 | – | – | –
LCKPGVPYQWPTCL [Phage-1465 peptide (Peptide-92 library, SEQ ID NO: 1761)] | 1.78 | 0.07 | – | – | – | – | –
WCAAVFSYTWSPCL [Phage-1428] | – | – | – | – | – | – | Anti-CD28 Fab signal in the presence of CD28 [7]: 0.07; Anti-CD28 Fab (SEQ ID NOs: 696, 697) signal [8]: 1.96
LCSAGAMYQWPTCL (peptide, not shown: large carriers) [Phage-1508] | – | – | – | – | 1.63 | 0.06 | –
WCAEFFNYHWPLCF [Phage-1468 peptide (Peptide-92 library, SEQ ID NO: 1764)] | 1.77 | 0.06 | – | – | – | – | –
SCAAGAHYVWPFCF (Tested as clonal phage supernatant; not shown: fused to pIII of the bacteriophage) [Phage-1493 (Peptide-92 library clone, SEQ ID NO: 1789)] | – | – | 1.68 | 0.08 | – | – | –
DCWGDAPYPWRVCL (peptide, not shown: large carriers) [Phage-1506] | – | – | – | – | 1.64 | 0.07 | –

Binder | Anti-CD28 Fab (SEQ ID NOs: 696, 697) signal [1] | Anti-CD28 Fab signal in the presence of CD28 [2] | Phage binding ELISA, Anti-CD28 Fab signal [3] | Phage binding ELISA, Anti-CD28 Fab signal in the presence of CD28 [4] | Anti-CD28 Fab (SEQ ID NOs: 696, 697) signal [5] | Anti-CD28 Fab signal in the presence of CD28 [6] | also measured
TCAAGAGWAWPFCF (Tested as clonal phage supernatant; not shown: fused to pIII of the bacteriophage) [Phage-1503 (Peptide-92 library clone, SEQ ID NO: 1799)] | – | – | 1.65 | 0.09 | – | – | –
YCSAGAQWPWPICL [Phage-1461 peptide (Peptide-92 library, SEQ ID NO: 1757)] | 1.79 | 0.08 | – | – | – | – | –
RCAAGVMYDWPVCL (Tested as clonal phage supernatant; not shown: fused to pIII of the bacteriophage) [Phage-1490 (Peptide-92 library clone, SEQ ID NO: 1786)] | – | – | 1.7 | 0.07 | – | – | –
SCAAGATYEWPRCL (peptide, not shown: large carriers) [Phage-1515] | – | – | – | – | 1.6 | 0.07 | –
TCSAGATYNWPWCF (Tested as clonal phage supernatant; not shown: fused to pIII of the bacteriophage) [Phage-1494 (Peptide-92 library clone, SEQ ID NO: 1790)] | – | – | 1.68 | 0.05 | – | – | –
TCAAGAVWEWPMCF [Phage-1473 peptide (Peptide-92 library, SEQ ID NO: 1769)] | 1.76 | 0.07 | – | – | – | – | –
TCAAGAMWVWPTCL (Tested as clonal phage supernatant; not shown: fused to pIII of the bacteriophage) [Phage-1499 (Peptide-92 library clone, SEQ ID NO: 1795)] | – | – | 1.66 | 0.07 | – | – | –
TCAAGATWPWPSCL (peptide, not shown: large carriers) [Phage-1512] | – | – | – | – | 1.61 | 0.08 | –
SCAAGLSYPWPDCL (Tested as clonal phage supernatant; not shown: fused to pIII of the bacteriophage) [Phage-1502 (Peptide-92 library clone, SEQ ID NO: 1798)] | – | – | 1.65 | 0.07 | – | – | –
SCAAGATYTWPMCI (Tested as clonal phage supernatant; not shown: fused to pIII of the bacteriophage) [Phage-1501 (Peptide-92 library clone, SEQ ID NO: 1797)] | – | – | 1.66 | 0.07 | – | – | –
TCAAGAHWIWPWCE (peptide, not shown: large carriers) [Phage-1513] | – | – | – | – | 1.61 | 0.07 | –
TCAAGAGWQWPMCF (peptide, not shown: large carriers) [Phage-1514] | – | – | – | – | 1.6 | 0.11 | –
GCAAGANYPWPLCL (peptide, not shown: large carriers) [Phage-1516] | – | – | – | – | 1.59 | 0.05 | –
TCSAGASYPWPVCL (Tested as clonal phage supernatant; not shown: fused to pIII of the bacteriophage) [Phage-1495 (Peptide-92 library clone, SEQ ID NO: 1791)] | – | – | 1.67 | 0.07 | – | – | –
TCAAGAHYEWPMCY (peptide, not shown: large carriers) [Phage-1510] | – | – | – | – | 1.61 | 0.12 | –
WCAAGAMYPWPLCL (Tested as clonal phage supernatant; not shown: fused to pIII of the bacteriophage) [Phage-1496 (Peptide-92 library clone, SEQ ID NO: 1792)] | – | – | 1.67 | 0.06 | – | – | –
TCAAGASYQWPLCF [Phage-1462 peptide (Peptide-92 library, SEQ ID NO: 1758)] | 1.79 | 0.07 | – | – | – | – | –
MCTAGALYNWPTCL [Phage-1466 peptide (Peptide-92 library, SEQ ID NO: 1762)] | 1.78 | 0.09 | – | – | – | – | –
TCAAGAHYPWPYCL [Phage-1467 peptide (Peptide-92 library, SEQ ID NO: 1763)] | 1.77 | 0.05 | – | – | – | – | –
GCAAGAHYPWPFCL [Phage-1472 peptide (Peptide-92 library, SEQ ID NO: 1768)] | 1.76 | 0.06 | – | – | – | – | –
SCSAVFSYAWPTCL (peptide, not shown: large carriers) [Phage-1511] | – | – | – | – | 1.61 | 0.08 | –
SCSAGFHYPWPICL [Phage-1464 peptide (Peptide-92 library, SEQ ID NO: 1760)] | 1.79 | 0.07 | – | – | – | – | –
SCAAGASYSWPACF [Phage-1463 peptide (Peptide-92 library, SEQ ID NO: 1759)] | 1.79 | 0.07 | – | – | – | – | –
